From publication PMC8318918
pKd: −log10 of the molar value.

Legend:
[1] = molecular target: His-tagged XRCC1, insect-cell expressed (human) (UniProt P18887); assay: co-purification after co-expression
[2] = molecular target: His-tagged LigIIIβ full length (1–846) (human); assay: SPR
[3] = molecular target: His-tagged LigIIIα (full-length DNA ligase IIIα), co-expressed with TDP1 in insect cells (human); assay: co-purification after co-expression
[4] = molecular target: LigIIIα co-expressed with His-tagged XRCC1 and TDP1 in insect cells (human); assay: co-purification after co-expression
LigIII_(170–755) (human) = assay: SEC-MALS

UniProt P18887, sequence (P18887 whole entry): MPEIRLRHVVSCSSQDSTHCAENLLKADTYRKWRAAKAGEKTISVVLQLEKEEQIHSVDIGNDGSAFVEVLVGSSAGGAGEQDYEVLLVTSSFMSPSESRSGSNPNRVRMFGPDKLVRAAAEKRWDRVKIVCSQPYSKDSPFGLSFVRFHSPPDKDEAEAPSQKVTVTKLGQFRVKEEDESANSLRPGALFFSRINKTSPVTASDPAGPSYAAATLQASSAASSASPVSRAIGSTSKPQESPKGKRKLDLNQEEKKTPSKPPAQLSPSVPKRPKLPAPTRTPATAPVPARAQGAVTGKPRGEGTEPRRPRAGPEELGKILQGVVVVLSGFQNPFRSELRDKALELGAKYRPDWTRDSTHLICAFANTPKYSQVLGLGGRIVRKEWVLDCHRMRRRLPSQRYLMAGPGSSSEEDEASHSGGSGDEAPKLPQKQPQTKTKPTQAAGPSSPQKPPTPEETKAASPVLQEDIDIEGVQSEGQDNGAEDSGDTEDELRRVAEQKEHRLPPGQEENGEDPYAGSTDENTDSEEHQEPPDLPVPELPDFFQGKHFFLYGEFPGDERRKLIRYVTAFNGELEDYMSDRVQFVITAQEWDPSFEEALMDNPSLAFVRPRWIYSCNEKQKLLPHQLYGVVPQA

| stoichiometry N [1] | pKd [2] | stoichiometry N [3] | stoichiometry N [4] | stoichiometry N (LigIII_(170–755) (human)) | Substance |
| --- | --- | --- | --- | --- | --- |
| 1 |  |  |  |  | LigIIIα co-expressed with His-tagged XRCC1 and TDP1 in insect cells (enzyme) |
|  | 8.28 |  |  |  | TDP1-S81A, insect-cell expressed, phosphorylated (from UniProt Q9NUW8 1-608) (enzyme) |
|  | 8.29 | 1 | 1 | 1 | Flag-tagged TDP1 (tyrosyl DNA phosphodiesterase 1), insect-cell expressed, phosphorylated (from UniProt Q9NUW8 1-608) (enzyme) |
|  | 8.06 |  |  |  | TDP1-S81E, insect-cell expressed, phosphorylated (from UniProt Q9NUW8 1-608) (enzyme) |
